Results on one substance are retold here after article PMC8671946.

For orientation: Kd means the free concentration of one partner at which half of the binding sites on the other are occupied at equilibrium, for simple one-to-one binding. Low readings indicate tighter binding, high ones weaker binding.

For the assay, the target named is HER2/PD-L1 BsAb (humanized bispecific IgG1 subclass antibody targeting both HER2 and PD-L1). Briefly: BLI; Octet RED96; antibody (10 ug/ml) immobilised on Protein A biosensors; 6xHis-tagged antigens two-fold serially titrated from 100 nM; PBS with 0.02% Tween 20 and 0.1% BSA, room temperature. In general terms: Biolayer interferometry detects binding as a change in optical thickness at a sensor tip.

With “human epidermal growth factor receptor 2 (HER2), recombinant, 6xHis-tagged (from UniProt P04626 23-652)”, the dissociation constant (Kd) was found to be 6.36 nM.
